Laboratory results reported in patent US20100261660A1 (published 2010).
Substitutions are numbered along the chain they refer to.

B1: Round 2 CTLA4BP 5x2-e12 (ligand)
chain: VIHVTKEVKEVATLSCGHNVSVEELAQTRIHWQKEKKMVLTMMSGGMNIWPEYKNRTIFDITNNLSIVILALRPSDEGTYECVVLKYEKDAFKREHLAEVTLSVKADFPTPSISDFEIPTSNIRRIICSTSGGFPEPHLSWLENGEELNAISTTVSQDPGTELYAVSSKLDFNMTTNRSFVCLIKYGHLRVNQTFNWNTTKQEHFPDNLLPSWAITLISVNGIFVICCLTYCFAPRCRERRRNERLRRESVRPV
B2: Round 2 CTLA4BP 5x3-c4 (ligand)
chain: VIHVTKEVKEVATLSCGHNVSVEELAQTRIYWQKEKKMVLTMMSGDMNIWPEYKNRTIFDITNNLSIVILALRPSDEGTYECVVLKYEKDAFKREHLAEVTLSVKADFPTPSISDFEIPPSNIRRIICSTSGGFPEPRLAWMEDGEELNAINTTASQDPETELYTVSSKLDFNMTTNRSFVCLIKYGHLRVNQTFNWNTPKQEHFPDNLFPSWAITLISVNGIFVICCLTYCFAPRCRERRRNERLRRESVRPV
B3: Round 2 CTLA4BP 5x9-d10 (ligand)
chain: VIHVTKEVKEVATLSCGLNVSVEELAQTRIYWQKGKKMVLTMMSGDMNIWPEYKNRTIFDITNNLSIVILALRPSDEGTYECVVLEYEKDAFKREHLAEVMLSVKADFPTPSISDFEIPPSNIRRIICSTSGGFPEPHLSWLENGEELNAINTTASQDPGTELYTVSSKLDFNMTTNHSFMCLIKYGHLRVNQTFNWNTPKQEHFPDNLLPSWAITLISVNGIFVICCLTHCFAPRCRERRRNERLRRESARPV
B4: Round 2 CTLA4BP-5x2-2g (ligand)
chain: VIHVTKEVKEVATLSCGHNVSVEELAQTRIHWQKEKKMVLTMMSGDMNIWPEYKNRTIFDITNNLSIVILALRPSDEGTYECVVLKYEKDAFKREHLAEVMLSVKADFPTPSITDFEIPTSNIRRIICSTSGGFPEPHLSWLENGEELNAINTTVSQDPETELYTVSSKLDFNMTTNHSFMCLIKYGHLRVNQTFNWNTPKQEHFPDNLLPSWAITLISVNGIFVICCLTYRFAPRCRERKSNERLRRESVRPV
B5: Round 2 CTLA4BP 5x5-c10 (ligand)
chain: B1 chain with H31Y, G46D, K86E, S114T, T120P, S140F, G160E, R178H, V181M, R252H
B6: Round 2 CTLA4BP 5x2-h11 (ligand)
chain: VIHVTKKVKEVATLSCGHNVSVEELAQTRIYWQKGKKMVLTMMSGDMNIWPECKNRTIFDITNNLSIVILALRPSDEGTYECAVLKYEKDAFKREHLAEVTLSVKADFPTPSISDFEIPTSNIRRIICSTSGGFPEPHLFWLENGEELNAINTTASQDPETELYAVSSKLDFNMTTNHSFMCLIKYGHLRVNQTFNWNTPKQEHFPDNLLPSWAITLISVNGIFVICCLTYCFAPRCRERKSNERLRRESVRPV
B7: Round 2 CTLA4BP-5X2-12F (ligand)
chain: B4 chain with M101T, T120P, R124K, L209P, V220A, R232C, K241R, S242R, R245T
B8: Round 2 CTLA4BP-5x2-7b (ligand)
chain: B4 chain with M101T, D107G, T120P, E160G, T176A, M181V, V220A, R232C, K241R, S242R
B9: Round 2 CTLA4BP-5x4-12c (ligand)
chain: B4 chain with T114S, T120P, S140F, V220A, R245T
notes: residues 1-34 left out as the signal peptide; also called CTLA-4BP 5×4-12c; clone R2 CTLA-4BP 5×4-12c
B10: Round 2 CTLA4BP-5x5-6e (ligand)
chain: B4 chain with T120P, N152S, P200T, V220A, Y231H, R232C, S242R
B11: Round 2 CTLA4BP-5x3-10e (ligand)
chain: B6 chain with K7E, G35E, C53Y, A83V, K86E, T120P, A155V, V220A, R252H
B12: Round 2 CTLA4BP-5x4-1f (ligand)
chain: B4 chain with T114S, S140F, R232C, K241R, S242R, R252C
B13: Round 2 CTLA4BP 5x3-e8 (ligand)
chain: VIHVTKEVKEVATLSCGHNVSVEELAQTRIYWQKEKKMVLTMMSGDMNIWPEYKNRTIFDITNNLSIVILALRPSDEGTYECVVLEYEKDAFKREHLAEVTLSVKADFPTPSISDFEIPTSNIRRIICSTSGGFPEPHLFWLENGEELNAINTTVSQDPETELYTVSSKLDFNMTANHSFVCLIKYGHLRVNQTFNWNTPKQEHFPDNLLPSWAITLISVNGIFVICCLTYCFAPGCRERRRNERLRRESVCPV
B14: Round 2 CTLA4BP 5x4-h1 (ligand)
chain: VIHVTKEVKEVATLSCGHNVSVEELAQTRIHWQKEKKMVLTMMSGDMNIWPEYKNRTIFDITNNLSIVILALRPSDEGTYECVVLKYEKDAFKRKHLAEVMLSVKADFPTPSISDFEIPTSNIRRIICSTSGGFPEPHLFWLENGEELNAINTTASQDPETELYTVSSKLDFNMTTNRSFVCLIKYGHLRVNQTFNWNTPKQEHFPNNLLPSWAITLISVNGIFVICCLTYCFAPRCRERRRNETLRRESVHPV
B15: Round 2 CTLA4BP-5x5-2e (ligand)
chain: B4 chain with H18L, T114S, T120P, T165A, R232C, K241R, S242R, R245T
B16: Round 2 CTLA4BP 5x3-c3 (ligand)
chain: B13 chain with V4M, H18P, E86K, F140S, E160G, A176T, V181M, Y231H, G236R
B17: Round 2 CTLA4BP-5x2-8c (ligand)
chain: VIHMTKEVKEVATLSCGHNVSVEELAQTRIYWQKEKKMVLTMMSGDMNIWPEYKNRTIFDITNNLSIVILALRPSDEGTYECVVLKYEKDAFKQEHLAEVMLSVKADFPTPSITDFEIPPSNIRRIICSTSGGFPEPHLFWLENGEELNAINTTVSQDPETELYAVSSKLDFNMTTNHSFVCLIKYGHLRVNQTFNWNTPKQEHFPDNLLPSWAITLISANGIFVICCLTYCFAPRCRERRRNERLRRESVHPV
B18: Round 2 CTLA4BP 5x6-f6 (ligand)
chain: B17 chain with M4V, R29P, Q94R, A165T, H178R, C232R, H252C
B19: Round 2 CTLA4BP 5x4-a1 (ligand)
chain: B1 chain with H31Y, G46D, Y53H, S114T, S152N, A165T, T200P
B20: Round 2 CTLA4BP 5x5-h12 (ligand)
chain: B1 chain with E7K, G46D, T101M, T120P, S152N, A165T, N177D, T200P, E244G
B21: Round 2 CTLA4BP-5x4-11d (ligand)
chain: B4 chain with H18L, E88D, M101T, T114S, T120P, T176A, M181V
B22: Round 2 CTLA4BP-5x3-11b (ligand)
chain: B4 chain with H31Y, P74S, M101T, T120P, N152S, H178R, M181V, R232C, K241R
B23: Round 2 CTLA4BP-5x2-4c (ligand)
chain: B13 chain with H18L, T101M, T120P, F140S, A150G, A176T, H178R, G236R, C252H
B24: Round 2 CTLA4BP 5x2-f3 (ligand)
chain: VIHVTKEVKEVATLSCGHNVSVEELAQTRIYWQKEKKMVLTMMPGDMNIWPEYKNRTIFDITNNLSIVILALRPSDEGTYECVVLRYEKDAFKREHLAEVTLSVKADFPTPSISDFEIPTSNIRRIICSTSGGFPEPHLSWLENGEELNAINTTASQDPETELYTVSSKLDFNMTTNRSFVCLIKYGHLRVNQTFNWNTPKQEHFPDNLLPSWAITLISANGIFVICCLTHCFAPRCRERKSNERLRRESVRPV
B25: Round 2 CTLA4BP-5x2-3c (ligand)
chain: B4 chain with K6R, T114S, E162G, R232C, K241R, S242R, R252C
B26: Round 2 CTLA4BP-5x3-6f (ligand)
chain: B4 chain with H31Y, E35G, K86E, T114S, V155A, V220A, T230A, R232C, R236G

Target: T1, Soluble CTLA-4-Ig (extracellular domain of human CTLA-4 fused to the Fc portion of human IgG1) (human, UniProt P16410 36-161, FITC-conjugated in the FACS binding assays)
T1 construct: extracellular domain; bought from R&D Systems; also called sCTLA-4-Ig; CTLA-4-Ig Fc; not shown: Fc portion of human IgG1
T1 sequence (P16410 36-161): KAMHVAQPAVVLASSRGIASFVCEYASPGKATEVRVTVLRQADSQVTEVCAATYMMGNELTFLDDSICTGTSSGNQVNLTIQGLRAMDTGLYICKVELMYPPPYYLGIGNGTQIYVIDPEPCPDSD
Assay: competitive FACS on transfected cells, FITC-sCTLA-4-Ig with biotin-sCD28-Ig; grade 0-2 of CTLA-4/CD28 ratio vs WT hB7-1

Binder	Binding Score
B1	0
B2	1
B3	1
B4	2
B5	1
B6	1
B7	1
B8	1
B9	2
B10	2
B11	2
B12	2
B13	1
B14	2
B15	2
B16	1
B17	2
B18	1
B19	0
B20	1
B21	2
B22	1
B23	1
B24	0
B25	2
B26	2
